Blank lines part the entries; values can stand above or below the binder they belong to.
Experiments:
Assay in all cases: SPR
GST-Bcl-2ΔTM S70E = GST-Bcl-2ΔTM S70E (UniProt P10415 1-219, S70E)
[1] = target: Bcl-2ΔTM-His6 (unphosphorylated) (UniProt P10415 1-219)
GST-Bcl-2ΔTM (wt) = GST-Bcl-2ΔTM (wt) (UniProt P10415 1-219)
Sequence of GST-Bcl-2ΔTM (wt) (P10415 1-219, stated change not applied): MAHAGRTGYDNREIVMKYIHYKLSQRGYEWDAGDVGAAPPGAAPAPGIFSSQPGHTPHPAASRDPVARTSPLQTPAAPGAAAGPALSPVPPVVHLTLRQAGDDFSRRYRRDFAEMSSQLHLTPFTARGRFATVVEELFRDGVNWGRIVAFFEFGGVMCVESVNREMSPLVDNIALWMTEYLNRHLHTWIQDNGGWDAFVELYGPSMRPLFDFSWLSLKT

Sequence of GST-Bcl-2ΔTM S70E (P10415 1-219 S70E): as the sequence (P10415 1-219, stated change not applied) above, with S70E counted along it
Sequence of Bcl-2ΔTM-His6 (unphosphorylated) (P10415 1-219, stated change not applied): as the sequence (P10415 1-219, stated change not applied) above

binding result (GST-Bcl-2ΔTM S70E): binds
Kd [1]: ~150 nM
B1: His6-tagged BakΔTM (domain or fragment, UniProt Q16611 1-186, looked up)
chain: MASGQGPGPPRQECGEPALPSASEEQVAQDTEEVFRSYVFYRHQQEQEAEGVAAPADPEMVTLPLQPSSTMGQVGRQLAIIGDDINRRYDSEFQTMLQHLQPTAENAYEYFTKIATSLFESGINWGRVVALLGFGYRLALHVYQHGLTGFLGQVTRFVVDFMLHHCIARWIAQRGGWVAALNLGNG

Kd (GST-Bcl-2ΔTM (wt)): 7 nM
Binder: RPEIWIAQELRRIGDEFNAYYARRVF [26-mer Bim BH3 peptide]
